Laboratory results from PMC10907630, “Phosphorylation regulates tau’s phase separation behavior and interactions with chromatin”.

Key:
tau 1N4R [1] = molecular target: T1, tau 1N4R (UniProt P10636-7 1-412); assay: fluorescence anisotropy; 10 mM NaCl; Hill fit; EMSA: 20 nM DNA or nucleosome, 20 mM HEPES pH 7.2, 10 mM NaCl (or 150), 0.5 mM TCEP, 0.1% Tween-20, 5% sucrose, room temperature 20 min; FA: 10 nM DNA, same buffer with 10 mM NaCl, 0.01% NP-40 substitute, room temperature 10 min; details: protein: recombinant; tags: none stated; label: 5' 6-FAM on strand 1; blunt
tau 1N4R [2] = molecular target: T1, tau 1N4R; assay: EMSA; 10 mM NaCl; Hill fit; EMSA: 20 nM DNA or nucleosome, 20 mM HEPES pH 7.2, 10 mM NaCl (or 150), 0.5 mM TCEP, 0.1% Tween-20, 5% sucrose, room temperature 20 min; FA: 10 nM DNA, same buffer with 10 mM NaCl, 0.01% NP-40 substitute, room temperature 10 min; details: protein: recombinant; tags: none stated; label: 5' 6-FAM on strand 1; blunt

T1 sequence (P10636 other isoform, or with tags, fused parts or gaps): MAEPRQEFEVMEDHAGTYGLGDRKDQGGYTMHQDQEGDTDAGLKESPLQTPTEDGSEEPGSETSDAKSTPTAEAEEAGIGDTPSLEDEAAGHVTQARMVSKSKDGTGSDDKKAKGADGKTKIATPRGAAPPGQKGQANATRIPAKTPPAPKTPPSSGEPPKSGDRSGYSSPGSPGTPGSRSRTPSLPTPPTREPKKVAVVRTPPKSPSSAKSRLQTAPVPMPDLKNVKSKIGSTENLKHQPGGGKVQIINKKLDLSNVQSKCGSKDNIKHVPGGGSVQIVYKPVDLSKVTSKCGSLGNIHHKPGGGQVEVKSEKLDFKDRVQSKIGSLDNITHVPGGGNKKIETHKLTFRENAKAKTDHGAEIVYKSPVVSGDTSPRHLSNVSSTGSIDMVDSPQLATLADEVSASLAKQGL

B1: 22 bp DNA (dsDNA)
DNA 1: ATTTAGAAATGTCCACTGTAGG
DNA 2: CCTACAGTGGACATTTCTAAAT
With B1 the Kd (tau 1N4R [1]) was 6.3 ± 0.5 nM and the Kd (tau 1N4R [2]) was 112 ± 3.7 nM.
